T1: MecA fused to the RenG N-terminal domain (1-155) (S. mutans, UniProt Q8DW33 1-240)
T1 construct: adaptor protein MecA; S. mutans UA159; source: S. mutans, expressed in live cells; not shown: RenG luciferase N-terminal domain (1-155), C-terminal, kept
T1 sequence: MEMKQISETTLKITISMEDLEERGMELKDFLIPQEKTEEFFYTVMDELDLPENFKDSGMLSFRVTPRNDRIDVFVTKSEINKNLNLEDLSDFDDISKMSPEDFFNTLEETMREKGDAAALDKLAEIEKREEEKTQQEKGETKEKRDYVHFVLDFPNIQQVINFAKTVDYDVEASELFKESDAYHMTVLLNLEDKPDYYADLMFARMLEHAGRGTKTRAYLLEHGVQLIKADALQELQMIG

B1: DnaG with the RenG C-terminal domain (156-314) fused to its N-terminus (natural protein, S. mutans, UniProt Q8DUS6 1-592, looked up)
chain: MVVDKEKIKEIKDSINIVDVIGEVVSLSRSGRNYLGLCPFHKEKTPSFNVIEDRQFFHCFGCGRSGDVFKFVEDYRNISFLESVQVLAERSGINVTLQDKSQEVKKEHPHQKLFNINGDANKFYQAVLKTTKVGETARQYLYERGLTDELITYFKIGLAPNEYDYLYQAMLKKYDEDTIINSGLFNLSDSNSIYDAFRNRIMFPLTDEFGHIIGFSGRIWTEEDTSKKLAKYKNTRSTIIFNKSYELYHLDKARTAAKKEHELYLMEGFMDVIAAYRAGIPNAVASMGTALTPEHVKHLRKFTKKVILTYDGDKAGQNAIAKSLNLLSNMAVEIVRIPGQMDPDEFIKENSEEELEKLLKQARISSAEFWIEHLKPENIDNLQAEIDYVEKIAKVIAASPSITAQNTYINKVAEFLPDFDYLQVEQAVNNERLQMRSQISEQESANQQVLIDLPVTKQLTALTKAESQLFHRLLHHDYLLNEFRNRAHFKFTTPELQELYQILKTNGEINAYDLSQLSNQLQETYYRVLEENLPEEIAEDEIRQIEDQIDKCLQRQEMRKQSKAIRESSNHGDVDTAVEGLAALIAQKRNME
notes: also called N-DnaG
B2: XseA fused to the RenG C-terminal domain (156-314) (natural protein, S. mutans, UniProt Q8DVB5 1-447, looked up)
chain: MSDYLSVSSLTKYLKLKFDRDPYLERVYLTGQVSNFRRRPNHQYFSLKDEKAVIQATMWSGIYRKLGFELEEGMKINVIGRVQLYEPSGSYSIIIEKAEPDGIGALAVQFEQLKKKLAEAGYFDDRHKQRLSQFVKKIGVVTSPSGAVIRDIITTVSRRFPGVDILLFPTKVQGEGAAQEVADNIRLANERTDLDLLIVGRGGGSIEDLWAFNEEIVVQAIFESHLPIISSVGHETDTTLADFAADRRAATPTAAAELATPVTKADLLAFLKERQMRSYQAVMRLIRQKDEQVKKLQRSVIFRQPERLYDAYVQKLDHLRTHLLTKVRQVYDVYDSKEHLLRQRLLSFNLSGCIQRYQAQLKQDQRLLLSHMSSQYDSKLARFEKAQDALLSLDTTRIVARGYAIVQKDNHIIQSTQQIKKGDRLHLEMKDGQVQVEVENVKQEENI
notes: Exodeoxyribonuclease VII large subunit, XseA; S. mutans UA159; not shown: RenG luciferase C-terminal domain (156-314), C-terminal, kept
B3: UvrA fused to the RenG C-terminal domain (156-314) (natural protein, S. mutans, UniProt P72481 1-943, looked up)
chain: MQDKLIIRGARAHNLKNIDVEIPRDKLIVMTGLSGSGKSSLAFDTIYAEGQRRYVESLSAYARQFLGNMDKPDVDSIDGLSPAISIDQKTTSKNPRSTVGTVTEINDYLRLLYARVGIPYCKNGHGAITASSVEQIVDQVLILPERTRMQILAPVVRRKKGQHKAVFDRIQKDGYVRVRIDGDIMDVAEVPELSKNKMHNIEVVVDRLVQKDGIRGRLFDSIEAALHLGDGYVIIDTMDDHELIFSEHYSCPVCGFTVPELEPRLFSFNAPFGSCPTCDGLGIKLEVDLDLVIPDENKTLREGTLAPWNPISSNYYPQLLEQAMNAFGVDMDKPWKDLSDEDKKLVLHGSGDTAFHFHYQNDFGGVRDIDIPFEGIISNISRRYHETNSDFTRNVMRSYMNELPCATCHGYRLNDQALSVRVGGKEGLNIGQVSELSIADHLSLLTHLELSENEKTIATPIVKEIKDRLTFLNNVGLNYLTLSRSAGTLSGGESQRIRLATQIGSNLSGVLYILDEPSIGLHQRDNDRLISSLKKMRDLGNTLIVVEHDEDTMMAADWLVDVGPGAGALGGEIVASGTPRQVAKNKKSITGQYLSGKKKIPVPLDRRKGSGRFIEIKGAAENNLQNINVKFPLGKFIAVTGVSGSGKSTLVNSILKKVIAQKLNRNSEKPGKYKSISGIEHIDRLIDIDQSPIGRTPRSNPATYTGVFDDIRDLFAQTNEAKIRGYKKGRFSFNVKGGRCEACSGDGIIKIEMHFLPDVYVPCEVCHGTRYNSETLEVHYKDKNIAEILNMTVNDAAEFFAPIPKIARKIRTIKDVGLGYVTLGQPATTLSGGEAQRMKLASELHKRSTGKSFYILDEPTTGLHTDDIARLLKVLERFVDDGNTVLVIEHNLDVIKTADHIIDLGPEGGVGGGQVIATGTPEQVAEMTESYTGQYLKGRLNEK
notes: Excinuclease ABC subunit, UvrA; S. mutans UA159; not shown: RenG luciferase C-terminal domain (156-314), C-terminal, kept
B4: ThiI fused to the RenG C-terminal domain (156-314) (natural protein, S. mutans, UniProt Q8DUR1 1-405, looked up)
chain: MQYSEIMVRYGELSTKGKNRMRFINQLKRNMKHVLSIYPEVSIRADRDRAHIYLNGANYVPVAESLKQIFGIQAFSPSYKVEKSVPALEKAVQAIMVELHHEGLTFKISSKRSDHQFELDSRELNQVLGSAVFAVLPDIKAQMNHPNVNLKVEIREEAAYLSYENIKGAGGLPVGTAGKGMLMLSGGIDSPVAGYLALKRGVNIEAVHFASPPYTSPGALKKAQDLTRKLTKFGGNIQFIEVPFTEIQEEIKAKAPEAYLMTLTRRFMMRIADRIREERSGLVIINGESLGQVASQTLESMQAINAVTTTPVIRPVVTMDKLEIIDIAEKIDTFAISIQPFEDCCTIFAPDRPKTNPKIKNVEQYEARLDIEGLVARAVAGINITEITPQEESQDEVDVLIEDLL
notes: tRNA 4-thiouridine(8) synthase, ThiI; S. mutans UA159; also called Thil; not shown: RenG luciferase C-terminal domain (156-314), C-terminal, kept

Molecular target: T1, MecA fused to the RenG N-terminal …
Test: split reporter (BiFC, NanoBiT)
Conditions: partners not purified

Which “relative binding affinity (%)” value does the source give for B1 here?
The value was 6.97 ± 0.32%.

B2 was tested. Which “relative binding affinity (%)” value did it give?
Its value is 3.16 ± 0.25%.

B3 was tested. Which “relative binding affinity (%)” value did it give?
Its value is 7.86 ± 0.3%.

Which “relative binding affinity (%)” value does the source give for B4 here?
The value was 8.92 ± 1.07%.
